Data published in the DeepSol protein solubility set.

Experiment: soluble on expression in E. coli; label from the status in PepcDB or PDB records

| Sequence | soluble on expression in E. coli |
| --- | --- |
| MGSDKIHHHHHHAGTYNPKNTTSFNINKSNYVAKGRIYKLRLPAAGRVVTNSDITLKNSMEWTCIPYGKDKNTYYLRKGTYYLTSSKNTNVKTAYTRLTKIRKNLETYVETKKNNDNSSLRAREIKVGQKIKAMGAMYDYDGIDYYRFTIDSPQMVTMKMTNAPIYQLGNGNIFSKMGITMFSDNNPVGDNTILYPETFSSKGNKSASQSWYLAKGTYYFSVSTRGLYNFQLTAVPDTRMVPADTEIESLKDTKDGVVASLRDALHAKTYELAWREKGSKFAPFSSSSNTTKVSTASATRYLKVNGHEIPVQIGRKLVNGQTYEFVARGVSNPNYIRYGNPETDNYFGAWTKIVEHTYYAPANGVPGAVELNAQADNTYHNIHVSWTKIDTAQSYRVAYRQKGTNKWYYEVTDQDSNAVTGITRNKTYELKLQALNGKEEGPWSTVKEVFLK | not soluble |
| RAPDLAGVPDCLVIVGGSMAAVKAPTALRRLREGGASTAVIATRAALAFITPLSLATAGNCEVATDETWFAPQPIAQHLSLARARVTVVLGASAELLAAAAHGHADTLATATLLSAEGQVLWVPAMNERMWLHPAVQANAERLRGWGHLFLGPETGAFGTPGEGSGTGRMAEPEAIAARALALLNEQDAEAEAAPQDLAGLKVV | not soluble |
| MSLTATTDGSTGASLRPLAASASDTDITIPAAAAGVPEAAARATRRATDFLLAKQDAEGWWKGDLETNVTMDAEDLLLRQFLGIQDEETTRAAALFIRGEQREDGTWATFYGGPGELSTTIEAYVALRLAGDSPEAPHMARAAEWIRSRGGIASARVFTRIWLALFGWWKWDDLPELPPELIYFPTWVPLNIYDFGCWARQTIVPLTIVSAKRPVRPAPFPLDELHTDPARPNPPRPLAPVASWDGAFQRIDKALHAYRKVAPRRLRRAAMNSAARWIIERQENDGCWGGIQPPAVYSVIALYLLGYDLEHPVMRAGLESLDRFAVWREDGARMIEACQSPVWDTCLATIALADAGVPEDHPQLVKASDWMLGEQIVRPGDWSVKRPGLPPGGWAFEFHNDNYPDIDDTAEVVLALRRVRHHDPERVEKAIGRGVRWNLGMQSKNGAWGAFDVDNTSAFPNRLPFCDFGEVIDPPSADVTAHVVEMLAVEGLAHDPRTRRGIQWLLDAQETDGSWFGRWGVNYVYGTGSVIPALTAAGLPTSHPAIRRAVRWLESVQNEDGGWGEDLRSYRYVREWSGRGASTASQTGWALMALLAAGERDSKAVERGVAWLAATQREDGSWDEPYFTGTGFPWDFSINYNLYRQVFPLTALGRYVHGEPFAKKPRAADAPAEAAPAEVKGSEGHHHHHH | soluble |
| MTTNKPLISVIMPVYNGGFTIRQAVESVFCQNIPLELLVIDDGSTDQTSEVLSVYRNRPDFHYLKNPHNIGAAASRNRGVQEAHGQYVAFLDADDWWENGKLQIQLDTLHETGRVLCSTGRELMNYDGTPTGKYIPVKETVSYRDLLKHNSINCSSVLLLRDVAAEFPMEHDDSHEDYLTWLKILRKYGPAAGIDRPLLKYRMSKTSKSGDKKKSAIMTYKVYRYMGYSHMRCILYFISYAIHGFWKYR | not soluble |
| MGSDKIHHHHHHMANLPWITIIGLGEDGPEGLPPASRDALAAAEIIMGPARHLALIGPTNAQQVEWPVPFADGIDVLRGHGGRPVAVLVSGDPFWYGAGRAMSKAFGRDAWRAIPVPSVFSLVSSRMGWPIEDTLCIGLHARPFEQLRAKLAPGRRIIATLRDGPAVSGVAHFLRDTGFGGSTLTVCEAVGGPREVVTQVSVAEALKGGFSHPVTVAVELHGTGEVIPLASGRPDALFQTDGVMTKRPVRALTLSALAPRAGEHLWDIGGGSGSIAVEWALADRTCTATVVETRADRVALIRANVESFGLTDQVTVLEGMAPGAMADAPPANAVFIGGGLSPEMLQFVTALPKGTRVVANAVTLEAEAHLAQAQGSFGGDLMRIEIAHAQPLGPKRGWTSAYPVVQWSVTL | not soluble |
| MSLEEATVEDIMIPRTEIVGIDLDDPWSETLERLTNSQYTRMPVYRGTVDHVMGFVHVRRIVGDLVRGNFTPEDLQARLKEPFFIPEGTGLHTQLLKFQRQRERVGLVVDEYGEILGLAALDDILEEIVGEFTTDPGTLTRSINRQDDGTYLVEGSATVRELNRVLGWELETSGPKTLNGLILERLETIPEAGTSLLIDGYPVTIVQTQGNRVKTAEIQPERPPSVQREGHHHHHH | soluble |
| MIKKAFCMQVYPDQHAEYQRRHEKLWPEMRQMLKEHGAIKYQIFLNPETSTLFGYLEIEDEARWEQIALTPINQKWWNYMEDIMETNPDCSPMTAELKKVFEL | not soluble |
| MGSDKIHHHHHHMTFEEFKDRLFALAKKNGVEVQISFLETREFSLRLANGDLDQYTDAGKFNVEIKVLKDGKTGTFRTQVLENPEKCFEEALSNLQVKDSEEKEYFFEGGKEYREMETYVGRFEKLSVKEKMDMAKKAHESAAKDERVVMVPTVMYKDMVIKKIITNTLGLDVESQMDGGFLFAMAIARDANPRSGSWYELARTPEDLNPEEIGKRAAEEAISLIGSKTIPSGKYPVLMRNTALLDLMEMFIPMISAENVQKNLSPLKGKLGEQVGNPAVSIKDLPYHPKGLSSTPFDDEGVPTTEKFVLENGVLKTFLHNLKTARKEGVEPTGNGFVGGIRPVNLMLMPGEKSFEELLKEMDRGVVITEVEGMHAGANSISGEFSLFAKGYWVENGEIAHGVEDITISGNFLDLLRKIVLVGNDVKVSQHTIAPSVLVEVLDVAGK | soluble |
| MKIFIVGSTGRVGKSLLKSLSTTDYQIYAGARKVEQVPQYNNVKAVHFDVDWTPEEMAKQLHGMDAIINVSGSGGKSLLKVDLYGAVKLMQAAEKAEVKRFILLSTIFSLQPEKWIGAGFDALKDYYIAKHFADLYLTKETNLDYTIIQPGALTEEEATGLIDINDEVSASNTIGDVADTIKELVMTDHSIGKVISMHNGKTAIKEALESLLEHHHHHH | soluble |
| NDAIIILNGEKVLDLNKKGREAFGLGARELDNISIGSLLSEKDLPAVRDALKTTLENGSACFEMKFRKQNGEVIDVEVSSSFLSLEEGEIQCVARD | not soluble |
| MSLTKYIFVTGGVVSSIGKGIVAASLGRLLKNRGLKVTIQKFDPYINIDPGTMSPYQHGEVYVTDDGAETDLDLGHYERFIDINLNKYSNVTTGKIYSEVLRKERKGEYLGATVQVIPHITDALKEKIKRAATTTDSDVIITEVGGTVGDIESLPFLEALRQMKADVGADNVMYIHTTLLPYLKAAGEMKTKPTQHSVKELRGLGIQPNMLVIRTEQPAGQGIKNKLAQFCDVAPEAVIESLDVDHLYQIPLNLQAQNMDQIVCDHLKLDVPVADMTEWSAMVDKVMNLKKKTKIALVGKYVELPDAYLSVVEALKHSGYVNDTAIDLNWINANEVTPETVTDLLGDADGIIVPGGFGHRGTEGKIEAIRYARENDVPMLGICLGMQLTCVEYARHVLNLEGANSAELDPDTKYPVIDIMRDQIDIEDMGGTLRLGLYPCKLKSGSKTASAYSNQEVVQRRHRHRYEFNNAFRQQFEEAGFVFSGVSPDNRLVEVVELSDKKFFVAAQYHPELQSRPNRPEELYTAFITAAVENSQAHEGHHHHHH | soluble |
| MAHHHHHHMSRHPLSRHINTSSVKLKIVKCKLFDIGEGISEVEITQWNKNEGDNVSEMETLLTVQSDKAAVDITSKYSGVLVKRYAEEKDVIKIGSYFCEIDTEDEVGEAAEEVVANEVADEADGRVDPGGPLSPAKVTQQGSKAPTVKASPGVKKKAQEYKLDVDAIGSYFSKEAITMLDVELYHQKVKSGEISNAGSDFNGEVLEEVPLKGIKLAMCKCMNDSLSIPLFHLNEKYNVQNLLSARNVIKKSVLQKDNVNVTLTSVLIKLISTVLKDFPLLNSKFDSQKNAYTIFKSHNVCVAMDTPNGLLVPNIKQVESKNVVEIQKELTSLRDKALQMKLSKSDISGGTITVSNFGVIGGTFATPIVFENQACIIGLSKIQKQLLLKNEKKELTALSDILVADVMNLTFGADHRFVDGATLAQFSKKLKEVVEGVTSLDPYAA | not soluble |
| MGSDKIHHHHHHMKKLRELTVEELFESFVLIKNADVRVAKNGKKFIAFTFQDTSGTIDGKYWDASEDEITRFTAGNVVLLNGKREVYQNKPQVKILHMRLATAEEPSQPSLYMERAPLKKEEMVEEINQVIFEITNAHWNRIVRYLMTKYQQEFYEFPAAKRNHHAFANGLAYHTVSMLRLGKAIAKEYTEINTSLLYAGIILHDLGKVLELSGAITTEYTVAGNLIGHLVLVDEEITKACLALKIDDREEDVVVLRHMVLAHHGLLEYGSPVRPRIMEAEILHQIDTMDASIQMMLGAIRQTQPGEYTERIFGLDNRSFYVPKDK | not soluble |
| MAHHHHHHMSGEKKEALKNDLPPIPGCDTDGQTYKSAEEMWAAELRGNLYDAETGWYGRSLQYWSKVPATVSGVLGGMEHIHDVDLKESRAFITSIPDRGTSRALDCGAGIGRVTKYLLSTLYTVTDLLEPVANMLEKAKEELKGYPVGEFFLSSMETVNLKPNTYDLIVIQWTAIYLTDDDFVKFLAHCKTALTLRGYIFFKENCSCDERFVVDKEDSSLTRSDAHYKRIFAAAGVEVVKETMQKEWPDDLFKVKMYALR | soluble |
| MDGVHDLAGVQGFGKVPHTVNADIGPTFHAEWEHLPYSLMFAGVAELGAFSVDEVRYVVERMEPRHYMMTPFYERYVIGVATLMVEKGILTQDELESLAGGPFPLSRPSESEGRPAPVETTTFEVGQRVRVRDEYVPGHIRMPAYCRGRVGTISHRTTEKWPFPDAIGHGRNDAGEEPTYHVKFAAEELFGSDTDGGSVVVDLFEGYLEPAA | soluble |
| MKSAEIREAFLRFFEEKGHTRVASSSLIPANDPTLLFTNAGMNQFKDCFLGLEKRAYTRATTSQKCVRAGGKHNDLENVGYTARHHTFFEMLGNFSFGDYFKRDAIHYAWEFLTGEKWLNLPKEKLWVTVYATDDEAYDIWTKEVGVPAERMVRIGDNKGAPYASDNFWAMGDTGPCGPCTEIFFDHGPEIWGGPPGSPEEDGDRYIEIWNNVFMQFNRTADGVMHPLPAPSVDTGMGLERVSAVLQHVHSNYEIDLFQNLLKASAEAIGCANDDAPSLKVVADHIRSCSFLIADGVLPSNEGRGYVLRRIIRRACRHGNKLGARGTFFHKIVAALVAEMGDAFPELKQQQAHIERVLKTEEEQFAKTLEQGLKILEQDLAELQGSVIPGNVVFKLYDTYGFPVDLTNDIARERELTIDEDGFEREMEAQRERARASSAFGMDYNSLVKVDGETRFLGYQGVSGAGQIVALFRDGQAVERLEEGEEGVVVLDQTPFYAESGGQVGDSGYLEAAGVRFDVRDTTKAGGAHLHHGVVARGNLSVGGAVKAEVDASVRQATALNHSATHLLHAALRQVLGDHVQQKGSLVDSQRLRFDFSHFEAIKAEQLKALEDIVNAEIRRNTEVETEETDIDTAKAKGAMALFGEKYGDQVRVLSMGGDFSVELCGGTHVSRTGDIGLFKITSEGGVAAGVRRIEAVTGAAALAYLNGAEEQLKEAASLVKGSRDNLLDKLGALLERNRSLEKELEQLKAKAASAAGDDLSAAAVEIKGAKVLAARLDGLDGKALLALVDQLKNKLGRAVILLGGELDGKVVLVAGVTQDLTGQLKAGELMKQAAAAVGGKGGGRPDMAQGGGTDAAKLDEALALAQRF | not soluble |
| MSLKIKEITIWKEDLALTRPYTIAYETISAVENVFVLLETDNGITGIGAGSPAEDVTGETITATETALSLKLAPILQGKDIRSCFSLLKELNTALADTPAALAAADIALHDLAAKTMGLPLVDLLGRVHDRLPTSITIGIMPVKETLAEAEEYLGRGFSILKIKTGLNVEEDIERIIRLNETFKSKICMRVDANQGYEVEELHHFFKKTVGLVEFIEQPLKAEHLEKMGQLPQAIRRVSAADETLLGPRDAAQMLHAPRPFGIFNIKLMKCGGIAPGLEIANMAGHADIDLMWGCMDESIVSIAGALHAAFSSRATRYLDLDGSLDLARDIVNGGFILENGWMRTTDQPGLGVKRIEGHHHHHH | soluble |
